In patent US20240392013A1, “IL1RAP ANTIBODIES AND USES THEREOF” (STELEXIS THERAPEUTICS, LLC, priority 2021, published 2024):

Legend:
[1] = test system: IL36-induced downstream signaling (phospho-ERK, AKT, p38, NFκB) in HPAC, CAL33, 5637 cells; assay: IL36 signaling in solid tumor cancer cells, Western blot; assay type: cell-based; conditions: IL36γ, antibody 20 μg/ml
Description: (§1) AML patient samples or cancer cells (AML, chronic myelogenous leukemia (CML), pancreatic, head and neck squamous cell carcinoma (HNSCC), bladder, non-small-cell lung carcinoma (NSCLC), colorectal and triple-negative breast cancer (TNBC)) were seeded in 6-well plates (5×10^5 cells/well) and incubated overnight at 37° C./5% CO2 in humified incubator. In experiments conducted in cancer cell lines, cells were washed 2× with PBS and serum-starved for 3 hours. Following, cells were treated with IL1RAP antibodies at concentration of 20 μg/ml and incubated for 1 h at 37° C./5% CO2 in humidified incubator. After 1 h, cells were treated with IL1β (Invivogen, cat: rcyec-hil1b), IL33 (Adipogen, cat: AG-40B-0160-C010) or IL36 cytokines (R@D, cat: 6836IL) at 100 ng/ml and incubated for 15 more minutes. Cells were harvested on ice after 1× wash with cold PBS and were centrifuged for 5 minutes at 5000 rpm at 4° C. Cells were then lysed with NP-40 buffer for 5 minutes on ice and centrifuged for 15 minutes at 15000 rpm at 4° C. Supernatants were collected and protein concentrations were determined by BCA (Thermofisher, Cat #PI23225). […] After 3× washes, ECL was applied (Thermofisher, Cat #32106) and proteins were detected after exposure to autoradioraphic films (Worldwide medical products, Cat #41101001) and protein intensity was quantitated using ImageJ software.

[2] = test system: IL1-induced NFκB activity; assay: HEK-BlueIL1β NFκB Reporter Assay; assay type: cell-based; conditions: nM range, read-out: IC50, inhibition of IL1-induced NFκB activity
Description: The HEK-Blue IL1β (Invivogen, Cat #hkb-il1b) cell line was used to monitor NFκB activity upon stimulation with IL1β cytokine. In this cell line the secreted embryonic alkaline phosphatase reporter gene (SEAP) is inducibly expressed under the control of IFN-β minimal promoter fused to NFκB/AP-1. Specificity to IL1β cytokine was achieved by blockage of TNF-α response. The cells were maintained in the presence of hygromycin (200 μg/ml) and zeocin (100 μg/ml).
For the functional assay, cells were plated at a density of 5×10^4 cells/well in 96-well plates. Cells were treated with each antibody at the highest concentration of 200 μg/ml followed by seven serial 1:3 dilutions and incubated for 45 minutes at 37° C./5% CO2 in humified incubator. Cells were then stimulated with IL1β ([…]) and incubated overnight at 37° C./5% CO2 in humified incubator. Every treatment was conducted in triplicates. Following, supernatants from each well were mixed with Quanti-Blue substrate (Invivogen, CA USA; Cat #rep-qb1) according to manufacturer's recommendations and secreted SEAP was measured using spectrophotometer at 650 nm.

[3] = test system: cyIL1RAP; assay: Kinetics of IL1RAP mAbs by Octet, cynomolgus IL1RAP; assay type: binding
Description: (§2) Antibodies were diluted in kinetics buffer (0.1% BSA, 0.02% Tween-20 and 0.05% NaN3 in PBS) and loaded onto 16 channel anti-mouse IgG Fc capture sensors (AMC, Cat #2001073; Sartorius, Göttingen, Germany). Human, huIL1RAP-His (Sino Biological, lot: MB08MA1301), and monkey, cyIL1RAP-His (Lake Pharma, NY, USA; lot:16205819371) proteins were titrated starting from the highest concentration of 100 nM and followed by 50 nM and 25 nM. Purified antibodies were loaded at 5 μg/ml in kinetics buffer. The experimental parameters selected to determine the kinetic constants were Baseline for 60 s, Loading of antibody to sensor for 180 s, Association of analyte to antibody for 120 s, Dissociation for 1200 s and Regeneration in 10 mM Glycine pH 1.7 for 4×30 s.
(§3) Regeneration cycle tracking was selected for 12 cycles. Binding to human and cynomolgus IL1RAP was measured and KD (M) kinetics were calculated. Also, the disassociation rate (Kdis) (1/s) and association rate (Kon) (1/Ms) kinetics were calculated (data not shown).

[4] = molecular target: T1, hIL1RAP (Homo sapiens, UniProt Q9NPH3); assay: Kinetics of IL1RAP mAbs by Octet, human IL1RAP; assay type: binding; set-up: extracellular domain His-tagged, Cat #10121-H08H; His; purchased Sino Biological lot MB08MA1301 (catalogue number not given)
T1 sequence (Q9NPH3 21-367 limits assumed): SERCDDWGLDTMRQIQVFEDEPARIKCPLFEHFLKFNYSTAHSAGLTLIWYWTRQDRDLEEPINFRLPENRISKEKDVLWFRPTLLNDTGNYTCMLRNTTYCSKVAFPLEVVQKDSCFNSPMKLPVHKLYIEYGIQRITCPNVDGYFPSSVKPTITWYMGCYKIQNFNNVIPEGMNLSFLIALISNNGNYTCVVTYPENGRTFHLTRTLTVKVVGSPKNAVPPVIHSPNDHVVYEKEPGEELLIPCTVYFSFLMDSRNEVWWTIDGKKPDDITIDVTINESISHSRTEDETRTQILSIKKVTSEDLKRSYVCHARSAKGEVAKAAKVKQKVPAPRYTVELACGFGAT
Description: as §2, §3

[5] = test system: IL1-induced downstream signaling (phospho-ERK, AKT, p38, NFκB) in A6L, CAL33, 5637, A549, Colo205, HCC70 cells; assay: IL1 signaling in solid tumor cancer cells, Western blot; assay type: cell-based; conditions: antibody 20 μg/ml
Description: as §1

[6] = test system: IL33-induced NFκB activity; assay: HEK-BlueIL33 NFκB Reporter Assay; assay type: cell-based, human; conditions: nM range, read-out: IC50, inhibition of IL33-induced NFκB activity
Text: HEK-Blue IL33 (Invivogen, Cat #hkb-hil33) cell line was used to monitor NFκB activity upon stimulation with IL33 cytokine. The secreted embryonic alkaline phosphatase reporter gene (SEAP) is inducible expressed under the control of IFN-β minimal promoter fused to NFκB/AP-1. HEK-BlueIL33 cells were also generated upon stable transfection with human IL1RL1 (ST2) gene. Specificity to IL33 cytokine was achieved by blockage of TNF-α and IL1 response. Cells are maintained in the presence of hygromycin (200 μg/ml), zeocin (100 μg/ml) and blasticidin (10 μg/ml).
For the functional assay, cells were plated at a density of 5×10^4 cells/well in 96-well plates. Cells were treated with each antibody at the highest concentration of 200 μg/ml followed by seven serial 1:3 dilutions and incubated for 45 minutes at 37° C./5% CO^2 in humified incubator. Cells were then stimulated with IL33 (12 μM) and incubated overnight at 37° C./5% CO2 in humified incubator. Every treatment was conducted in triplicates. Following, supernatants from each well were mixed with Quanti-Blue substrate (Invivogen, Cat #rep-qb1) according to manufacturer's recommendations and secreted SEAP was measured using spectrophotometer at 650 nm.

B1: 74804_45C18A: anti-IL1RAP mAb; VH SEQ ID NO:11, VL SEQ ID NO:27, κ light chain (antibody, V domains shown)
VH: EVQLVESGGGLVKPGGSLRLACAATGFTFSNVWMSWVRQGSGKGLEWVGRIKSKADGGTIDYAAPVKGRFTISRDDSKNTLYLQMNSLKTEDTAMYYCTTGELLGFDYWGQGTLVTVSS
VL: DIVMTQSPLSLPVTPGEPASISCRSGQSLLHSNGFNCLAWYLQKPGQSPQLLIYLGSNRASGVPDRFSGSGSGTDFTLKISRVEAEDVGVYYCMQTLQTPITFGQGTRLEIK
modifications: 74804_45C18A VH; 74804_45C18A VL
Inhibition of IL36 signaling (phosphorylation of ERK, AKT, p38 and NFκB) [1]: Inhibition of IL36 signaling in solid tumor cancer cells | IC50 [2]: 0.193 nM | cyIL1RAP kdis(1/s) [3]: 0.000291 s⁻¹ | cyIL1RAP kon(1/Ms) [3]: 337500 M⁻¹ s⁻¹ | hIL1RAP kdis(1/s) [4]: 0.000273 s⁻¹ | hIL1RAP kon(1/Ms) [4]: 421500 M⁻¹ s⁻¹ | Inhibition of IL1 signaling (phosphorylation of ERK, AKT, p38 and NFκB) [5]: inhibited IL1 signaling in solid tumor cancer cells | IC50 [6]: 1.37 nM
